For one variant, Kd results are on record in PMC11580166, “VPS26 Moonlights as a β-Arrestin-like Adapter for a 7-Transmembrane RGS Protein in Arabidopsis thaliana” (Biochemistry, 2024).

B1: Vacuolar Protein Sorting-Associated 26B (AtVPS26B) [Arabidopsis thaliana] / Vacuolar Protein Sorting-Associated 26A (AtVPS26A) [Arabidopsis thaliana] (parent complex)
chain 1: MNYLLGAFKPACNISITFSDGKNRKQVPMKKENGQTALVPLFHSQDTISGKVCIEPYQGKKVEHNGVKVELLGQIEMYFDRGNFYDFTSLVRELDVPGEIYERKTYPFEFPTVEMPYETYNGVNVRLRYVLKVTVTRGYAGSILEYQELVVRNYAPLPDINNSIKMEVGIEDCLHIEFEYNKSKYHLKDVILGKIYFLLVRIKMKNMDLEIRRRESTGAGANTHVETETLAKFELMDGTPVRGESIPVRLFLAPYDLTPTHRNINNKFSVKYYLNLVLVDEEDRRYFKQQEITLYRLKEDASS
chain 2: MNYLLGAFKPACNISITFTDGKNRKQVPTKKDNGQIVMNPLFQSQETIAGKINIEPYQGKKVEHNGVKVELLGQIEMYFDRGNFYDFTSLVREIDVPGEIYERKTYPFEFSSVEMPYETYNGVNVRLRYVLKVTVTRGYAGSIVEYQDFVVRNYVPLPPINNSIKMEVGIEDCLHIEFEYNKSKYHLKDVILGKIYFLLVRIKIKNMDLEIRRRESTGAGANTHVETETLAKFELMDGAPVRGESIPVRVFLTPYDLTPTHKNINNKFSVKYYLNLVLVDEEDRRYFKQQEITLYRLKEETS

In the assay the parent is B1. Put plainly: Microscale Thermophoresis (MST); parent: 18 nM. Background: Microscale thermophoresis detects binding through changes in fluorescence in a small temperature gradient.
Turning to chain 1 MNYLLGAFKPACNISITFSDGKNRKQVPMKKENGQTALVPLFHSQDTISGKVCIEPYQGKKVEHNGVKVELLGQIEMYFDRGNFADFTSLVRALDVPGEIYERKTYPFEFPTVEMPYETYNGVNVRLRYVLKVTVTRGYAGSILEYQELVVRNYAPLPDINNSIKMEVGIEDCLHIEFEYNKSKYHLKDVILGKIYFLLVRIKMKNMDLEIRRRESTGAGANTHVETETLAKFELMDGTPVRGESIPVRLFLAPYDLTPTHRNINNKFSVKYYLNLVLVDEEDRRYFKQQEITLYRLKEDASS [chain 1 Y85A, chain 1 E93A], the Kd came to 525 nM.

What is called Kd is the free concentration of one partner at which half of the binding sites on the other are occupied at equilibrium, for simple one-to-one binding.
